Positions count from the first letter of the chain named.
B1: anti-Siglec-9 antibody 7H12 (antibody, V domains shown)
VH: QVQLQQSGAEVVKPGASVKLSCKAFGYTFTSYWMHWVKQRPGQGLEWIGEINPRDGVSNCNEKFTSKATLTVDTSSNTAYMQLNNLTSEDSAVYYCTIWEDYFDYWGQGTTLTVST
VL: NVZMTQTPLTLSVTLGQPASISCKSSQSLLYTNGKTYLNWLLQRPGQSPKLLIYLVSKLESGVPDRFSGSGSGTDFTLKINRVEAEDLGVYFCLQAPHFPLTFGGGTKLEMK
notes: the asterisk is not explained; the printed VL holds a 'Z' at position 3
B2: anti-Siglec-9 antibody 2D5 (antibody, IgG1, V domains shown)
VH: QVQLQQSGPELVKPGASVKISCKASGYAFSSYWMNWVKQRPGKGLEWIGRIYPRDGDTNYNGKFKGKATLTADKSSSTAYMQLSSLTSEDSAVYFCARWLLRFAYWGQGTLVTVSA
VL: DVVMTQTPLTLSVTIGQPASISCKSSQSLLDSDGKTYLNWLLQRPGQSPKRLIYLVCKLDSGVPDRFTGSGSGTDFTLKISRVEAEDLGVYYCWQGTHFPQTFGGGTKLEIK
B3: anti-Siglec-9 antibody 5B1 (antibody, IgG1, V domains shown)
VH: B1 VH
VL: B1 VL with Z3V, F92Y, P97T, G105A, M111L
B4: anti-Siglec-9 antibody 5C6 (antibody, V domains shown)
VH: EVQLQQSGPELVKPGASVRISCKASGYTFTDYNIHWVKQSQGKSLEWIGYIYPYNGDTGYNQKFQNKATLTVDNSSSTAYMELRSLTSEDSAVYYCANGNYLYYYAMDYWGQGTSVTVSS
VL: DVVMTQTPLSLPVSLGDQVSISCSSSQSLVHSNGNTYLHWYLQKSGQSPKLLIYKVSNRFSGVPDRFRGSGSGTDFTLKISRVEAEDLGVYFCSQNTHVPLTFGAGTKLELK
notes: Murine antibody; also called S9-5C6; S9-5C6.3
B5: anti-Siglec-9 antibody 12B12 (antibody, V domains shown)
VH: EVQLVESGGGLVQPGGSLKLSCAASGFTFSNYGMSWVRQILDKRLELVATINSNGGRTYYPDSVKGRFTISRDNAKNTLYLQMSSLRSEDTAIYYCVTYYRYDSYAMDYWGQGTSVTVSS
VL: DIVLTQSPASLAVSLGQRATISCRASENVDSYGISFMHWYQQKPGQPPKLLIYRASNLESGIPARFSGSGSRTDFTLTINPVEADDVATYYCQQSNEDPWTFGGGTKLEIK
notes: Murine antibody; also called S9-12B12; S9-12B12.2

Tests used:
[1] = target: T1, human Siglec-9 expressed on human cells (human, UniProt Q9Y336 18-463); assay: cell-based or functional assay
[2] = target: T2, Siglec-9-Fc (R&D Systems, catalog number 1139-SL-050) (human, UniProt Q9Y336 18-348); assay: FACS ligand competition: 25 ug/ml mAb pre-coupled with 25 ug/ml Siglec-9-Fc, binding to sialic acid ligands on U937 cells, anti-human IgG-PE
T2 construct: Bought fusion protein; also called Siglec-9-Fc fusion protein; not shown: human IgG1 Fc
Protocol: To determine whether Siglec-9 antibodies block binding to sialic acid ligands, U937 cells, which robustly express sialic acid ligands that predominantly bind to Siglec-9, were utilized in a FACS-based protocol. Briefly, 25 μg/ml Siglec-9 antibodies were pre-coupled with 25 μg/ml Siglec-9-Fc (R&D Systems, catalog number 1139-SL-050) for 20 minutes on ice in binding buffer (PBS with 0.25% BSA and 1 mM CaCl₂) in 96-well round bottom plates. […] Cells were pelleted and resuspended in goat anti-human IgG-PE (SouthernBiotech catalog number 2040-09) secondary antibody at 1:2000 dilution in binding buffer for 30 minutes. Cells were then washed three times and analyzed by flow cytometry on a BD FACS Canto. Data were analyzed on FlowJo version 10.0.6 (TreeStar).

[3] = target: T3, Histidine-tagged human Siglec-9 (NovoProtein) (human, UniProt Q9Y336 18-348); assay: SPR Biacore T200, 25 C, 25 nM mAb captured on anti-mouse IgG CM5 chip, His-tagged Siglec-9 200 nM as analyte, single-concentration 1:1 fit
T3 construct: Bought protein; also called Siglec-9-his tagged protein; His-tagged Siglec 9 antigen; not shown: histidine tag

[4] = target: T1, human Siglec-9 expressed on human cells; assay: flow cytometry on human primary macrophages, 10 ug/ml mAb, PE secondary
Protocol: (§1) Initial characterization of Siglec-9 antibodies involved determining their ability to bind Siglec-9 expressed on human primary monocytes, human primary macrophages, human primary dendritic cells, human primary neutrophils, and human primary natural killer (NK) cells. Cells were harvested, plated at 10⁶/ml in a 96 well plate, and incubated in 100ul PBS containing 2% FBS, 2 mM EDTA and 10 μg/ml Mab and Fc blocking reagent for 1 hour in ice. Cells were washed twice and incubated in 100ul PBS containing 2% FBS, 2 mM EDTA and 5 μg/ml PE-conjugated secondary antibody for 30 minutes on ice. Cells were washed twice in cold PBS and analyze by flow cytometry on a BD FACS Canto. Data analysis and calculation of MFI values was performed with FlowJo (TreeStar) software version 10.0.7.
(§2) Binding is compared to an isotype control. […] In Table 5, “Buffer” refers to cells that were treated only with the PBS buffer described supra; “Secondary Ab” refers to cells that were treated only with the PE-conjugated secondary antibody; and “mIgG1,” “mIgG2a,” and “mIgG2b” refer to isotype control antibodies.

[5] = target: T1, human Siglec-9 expressed on human cells; assay: cell-based or functional assay; remark: listed apart in the source
[6] = target: T1, human Siglec-9 expressed on human cells; assay: flow cytometry on human primary monocytes, 10 ug/ml mAb, PE secondary
Protocol: as §1, §2

[7] = target: T1, human Siglec-9 expressed on human cells; assay: flow cytometry on human primary dendritic cells, 10 ug/ml mAb, PE secondary
Protocol: as §1, §2

[8] = target: T3, Histidine-tagged human Siglec-9 …; assay: SPR Biacore T200, 25 C, 25 nM mAb captured on anti-mouse IgG CM5 chip, His-tagged Siglec-9 100 nM as analyte, single-concentration 1:1 fit
Protocol: Affinity constants (KD) were calculated from the ratio kd/kₐ.

[9] = target: T3, Histidine-tagged human Siglec-9 …; assay: BLI ForteBio Octet RED96, mAb on AMC tips, His-tagged Siglec-9 3.13-50 nM; assay 1; column head prints nM but kd/ka gives M
Protocol: (§3) Antibodies were captured on anti-mouse IgG Fc capture (AMC) biosensor tips, after which a baseline was run for 60 seconds. A 15 minute association step was performed in a dilution series of His-tagged Siglec 9 antigen, ranging from 3.13 nM to 50 nM, after which dissociation was measured over 60 minutes. Affinity constants (KD) were calculated from the ratio kd/kₐ.

[10] = target: T3, Histidine-tagged human Siglec-9 …; assay: BLI ForteBio Octet RED96, mAb on AMC tips, His-tagged Siglec-9 3.13-50 nM; average of two assays
Protocol: as §3

[11] = target: T3, Histidine-tagged human Siglec-9 …; assay: BLI ForteBio Octet RED96, mAb on AMC tips, His-tagged Siglec-9 3.13-50 nM; assay 2; column head prints nM but kd/ka gives M
Protocol: as §3

T2 sequence (Q9Y336 18-348 limits assumed): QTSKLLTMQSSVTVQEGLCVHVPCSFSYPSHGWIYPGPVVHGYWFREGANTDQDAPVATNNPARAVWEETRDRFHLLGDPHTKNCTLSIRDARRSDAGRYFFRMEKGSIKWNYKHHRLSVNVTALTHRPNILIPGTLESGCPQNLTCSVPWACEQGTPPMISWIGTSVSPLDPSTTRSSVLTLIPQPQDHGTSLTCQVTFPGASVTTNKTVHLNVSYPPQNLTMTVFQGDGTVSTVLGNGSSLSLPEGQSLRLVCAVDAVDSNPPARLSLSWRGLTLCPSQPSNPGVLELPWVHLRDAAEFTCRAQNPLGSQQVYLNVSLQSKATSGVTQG
T3 sequence (Q9Y336 18-348 limits assumed): as above
T1 sequence (Q9Y336 18-463): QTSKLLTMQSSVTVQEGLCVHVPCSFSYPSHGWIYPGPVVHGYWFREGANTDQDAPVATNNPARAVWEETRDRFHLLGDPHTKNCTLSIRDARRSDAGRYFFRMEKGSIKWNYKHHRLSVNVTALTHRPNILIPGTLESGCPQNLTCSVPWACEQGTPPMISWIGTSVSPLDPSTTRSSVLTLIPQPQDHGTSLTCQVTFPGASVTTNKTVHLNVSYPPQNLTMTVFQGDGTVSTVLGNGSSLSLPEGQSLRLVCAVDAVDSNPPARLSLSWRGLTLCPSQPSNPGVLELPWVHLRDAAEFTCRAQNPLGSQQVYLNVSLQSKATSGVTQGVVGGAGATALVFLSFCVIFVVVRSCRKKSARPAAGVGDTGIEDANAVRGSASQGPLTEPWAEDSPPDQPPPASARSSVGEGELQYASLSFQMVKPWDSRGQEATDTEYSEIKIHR

Row | Binder | Percent Siglec-9 Surface Expression, DCs (% Siglec-9) [1] [%] | Percent Siglec-9 Surface Expression, Monocytes (% Siglec-9) [1] [%] | Percent Siglec-9 Surface Expression, THP-1 cells (% Siglec-9) [1] [%] | Percent Siglec-9-Fc Binding [2] [%] | Kd [3] [nM] | % Positive [4] [%] | MFI [4] | Percent Siglec-9 Surface Expression, Macrophages (% Siglec-9) [5] [%] | Percent Siglec-9 Surface Expression, Microglia (% Siglec-9) [5] [%] | % Positive [6] [%] | MFI [6] | % Positive [7] [%] | MFI [7] | Kd [8] [nM] | Kd [9] [nM] | Kd [10] [nM] | Kd [11] [nM]
1 | B1 | 66.2 | 48.4 | 68.9 | 97.8 | 9 | 94.8 | 467 | 34.2 | 54.7 | 38.3 | 216 | 60.5 | 331 | – | – | – | –
2 | B2 | 94.3 | 84.4 | 81.1 | 97.8 | – | 93.2 | 692 | 94.6 | 90.6 | 9.1 | 145 | 34.2 | 252 | 5.1 | – | – | –
3 | B3 | 39.2 | 31.2 | 61.6 | 97.8 | – | 98.7 | 621 | 24.8 | 27.5 | 75.9 | 310 | 97.8 | 646 | 2.7 | – | – | –
4 | B4 | – | – | – | – | – | – | – | – | – | – | – | – | – | – | 0.532 | 0.54 | 0.557
5 | B5 | – | – | – | – | – | – | – | – | – | – | – | – | – | – | 0.639 | 0.76 | 0.879

Reference: US20190062427A1 (Alector, published 2019)
